Paper PMC11576762

Molecular target: human TPC1 with C-terminal mVenus (human) (UniProt Q9ULQ1)
Experiment: FRET or BRET; Two-hybrid FRET in live HEK293 cells; donor mTq2 constructs (0.7 µg DNA), acceptor mVenus constructs (1.5 µg DNA); confocal imaging, regions of interest around mVenus-positive lysosomes; maximum FRET efficiency from two-hybrid curves; no apilimod

mTq2-Rab5 (from UniProt P20339 1-215) (natural protein)
FRET efficiency: 29%
